{"source": "paper PMC3601739", "about": "(Chemical communications (Cambridge, England), 2013)", "key": {"[1]": {"target": "HIV-1 RRE IIB RNA", "assay": "Electrophoretic mobility shift assay", "assay_type": "binding", "conditions": "read-out: Kd (dissociation constant) determined through EMSA; EMSA with RRE IIB"}, "[2]": {"target": "HIV-1 RRE IIB RNA", "assay": "Dot blot assay, 32P-labeled RRE IIB titrated with BPBAs", "assay_type": "binding", "conditions": "read-out: Kd (dissociation constant), 32P-labeled RRE IIB titrated with increasing concentration of peptide, average of at least three experiments"}, "[3]": {"tested_on": "BPBA2 (synthetic)", "assay": "EMSA", "conditions": "not stated in the material (details in ESI)"}, "[4]": {"tested_on": "BPBA1 (synthetic)", "assay": "EMSA", "conditions": "not stated in the material (details in ESI)"}, "[5]": {"tested_on": "BPBA3 (synthetic)", "assay": "EMSA", "conditions": "not stated in the material (details in ESI)"}, "[6]": {"tested_on": "BPBA8 (synthetic)", "assay": "dot blot", "conditions": "not stated in the material (details in ESI)"}, "[7]": {"tested_on": "BPBA2 (synthetic)", "assay": "dot blot", "conditions": "not stated in the material (details in ESI)"}, "[8]": {"tested_on": "BPBA4 (synthetic)", "assay": "dot blot", "conditions": "not stated in the material (details in ESI)"}, "[9]": {"tested_on": "BPBA1 (synthetic)", "assay": "dot blot", "conditions": "not stated in the material (details in ESI)"}, "[10]": {"tested_on": "BPBA1.2 (synthetic)", "assay": "dot blot", "conditions": "not stated in the material (details in ESI)"}, "[11]": {"tested_on": "BPBA7 (synthetic)", "assay": "dot blot", "conditions": "not stated in the material (details in ESI)"}, "[12]": {"tested_on": "BPBA6 (synthetic)", "assay": "dot blot", "conditions": "not stated in the material (details in ESI)"}, "[13]": {"tested_on": "BPBA5 (synthetic)", "assay": "dot blot", "conditions": "not stated in the material (details in ESI)"}, "[14]": {"tested_on": "BPBA3 (synthetic)", "assay": "dot blot", "conditions": "not stated in the material (details in ESI)"}}, "data": [{"substance": "(FBPAYFBPA)2 * NKSY [BPBA3]", "values": [{"measurement": "Kd", "setting": "[1]", "result": "4.6 ± 2.4", "unit": "µM"}, {"measurement": "Kd", "setting": "[2]", "result": "8.7 ± 2.3", "unit": "µM"}]}, {"substance": "(KBBAKFBPA)2 * KBBAKKY [BPBA2]", "values": [{"measurement": "Kd", "setting": "[2]", "result": "3.3 ± 1.2", "unit": "µM"}]}, {"substance": "(KBBAYK)2 * HKKY [BPBA8]", "values": [{"measurement": "Kd", "setting": "[2]", "result": "86.5 ± 10", "unit": "µM"}]}, {"substance": "(KKBBAF)2 * KKWY [BPBA5]", "values": [{"measurement": "Kd", "setting": "[2]", "result": "27.2 ± 6.9", "unit": "µM"}]}, {"substance": "(KKBBAK)2 * KLKY [BPBA7]", "values": [{"measurement": "Kd", "setting": "[2]", "result": "58.4 ± 4", "unit": "µM"}]}, {"substance": "(KKKBBA)2 * FBPATSY [BPBA4]", "values": [{"measurement": "Kd", "setting": "[2]", "result": "26.8 ± 4.4", "unit": "µM"}]}, {"substance": "(WKK)2 * KBBAYWY [BPBA1]", "values": [{"measurement": "Kd", "setting": "[2]", "result": "1.4 ± 0.4", "unit": "µM"}]}, {"substance": "HIV-1 RRE IIB RNA", "values": [{"measurement": "Kd", "setting": "[3]", "result": 0.6, "unit": "µM"}, {"measurement": "Kd", "setting": "[4]", "result": 0.3, "unit": "µM"}, {"measurement": "Kd", "setting": "[5]", "result": 4.6, "unit": "µM"}, {"measurement": "Kd", "setting": "[6]", "result": 86.5, "unit": "µM"}, {"measurement": "Kd", "setting": "[7]", "result": 3.3, "unit": "µM"}, {"measurement": "Kd", "setting": "[8]", "result": 26.8, "unit": "µM"}, {"measurement": "Kd", "setting": "[9]", "result": 1.4, "unit": "µM"}, {"measurement": "Kd", "setting": "[10]", "result": 0.8, "unit": "µM"}, {"measurement": "Kd", "setting": "[11]", "result": 58.4, "unit": "µM"}, {"measurement": "Kd", "setting": "[12]", "result": 28.5, "unit": "µM"}, {"measurement": "Kd", "setting": "[13]", "result": 27.2, "unit": "µM"}, {"measurement": "Kd", "setting": "[14]", "result": 8.7, "unit": "µM"}]}]}
